Assay results: publication doi:10.1101/2022.04.07.487446 (bioRxiv, 2022)

Target: FANCD2 (human, UniProt Q9BXW9 1-1451)
Assay: cryo-EM structure

FANCD2, sequence (Q9BXW9 whole entry): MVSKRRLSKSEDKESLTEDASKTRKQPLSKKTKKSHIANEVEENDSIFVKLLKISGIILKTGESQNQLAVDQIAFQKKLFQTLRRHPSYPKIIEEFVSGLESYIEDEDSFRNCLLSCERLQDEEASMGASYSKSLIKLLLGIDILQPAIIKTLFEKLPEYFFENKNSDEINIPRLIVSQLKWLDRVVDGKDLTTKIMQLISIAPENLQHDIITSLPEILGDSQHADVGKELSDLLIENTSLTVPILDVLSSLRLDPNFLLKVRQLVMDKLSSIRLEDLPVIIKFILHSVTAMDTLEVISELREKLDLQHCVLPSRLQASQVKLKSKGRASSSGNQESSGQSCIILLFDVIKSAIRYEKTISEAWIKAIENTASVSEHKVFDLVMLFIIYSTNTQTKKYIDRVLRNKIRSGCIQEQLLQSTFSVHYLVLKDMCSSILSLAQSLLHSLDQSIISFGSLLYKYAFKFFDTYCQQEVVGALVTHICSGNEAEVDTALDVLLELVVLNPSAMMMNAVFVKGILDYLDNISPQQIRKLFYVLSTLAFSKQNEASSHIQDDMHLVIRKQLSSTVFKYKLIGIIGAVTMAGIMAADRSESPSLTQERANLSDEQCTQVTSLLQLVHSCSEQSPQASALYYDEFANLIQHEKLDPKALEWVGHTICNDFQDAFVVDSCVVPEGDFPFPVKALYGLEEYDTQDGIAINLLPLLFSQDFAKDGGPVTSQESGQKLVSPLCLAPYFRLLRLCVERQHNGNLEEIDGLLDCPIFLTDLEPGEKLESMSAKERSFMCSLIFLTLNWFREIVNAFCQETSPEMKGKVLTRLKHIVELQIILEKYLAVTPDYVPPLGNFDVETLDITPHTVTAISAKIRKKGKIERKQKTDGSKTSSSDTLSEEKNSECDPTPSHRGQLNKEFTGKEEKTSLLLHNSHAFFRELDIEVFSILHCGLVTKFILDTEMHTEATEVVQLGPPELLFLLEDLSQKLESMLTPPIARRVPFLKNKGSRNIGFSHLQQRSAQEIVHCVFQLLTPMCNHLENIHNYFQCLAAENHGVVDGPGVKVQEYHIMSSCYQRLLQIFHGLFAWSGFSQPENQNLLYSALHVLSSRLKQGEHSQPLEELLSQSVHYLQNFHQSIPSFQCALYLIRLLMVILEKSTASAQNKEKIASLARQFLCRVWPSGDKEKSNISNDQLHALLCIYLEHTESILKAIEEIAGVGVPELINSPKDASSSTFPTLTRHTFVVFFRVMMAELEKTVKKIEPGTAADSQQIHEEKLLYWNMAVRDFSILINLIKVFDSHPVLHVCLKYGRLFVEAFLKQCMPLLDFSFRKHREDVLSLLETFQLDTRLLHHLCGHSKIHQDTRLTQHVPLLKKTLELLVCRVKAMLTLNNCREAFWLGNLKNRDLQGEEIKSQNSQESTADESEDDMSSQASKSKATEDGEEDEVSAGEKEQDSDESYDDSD

B1: ubiquitinated His6-V5-FANCI (natural protein)
chain 1: MDQKILSLAAEKTADKLQEFLQTLREGDLTNLLQNQAVKGKVAGALLRAIFKGSPCSEEAGTLRRRKIYTCCIQLVESGDLQKEIASEIIGLLMLEAHHFPGPLLVELANEFISAVREGSLVNGKSLELLPIILTALATKKENLAYGKGVLSGEECKKQLINTLCSGRWDQQYVIQLTSMFKDVPLTAEEVEFVVEKALSMFSKMNLQEIPPLVYQLLVLSSKGSRKSVLEGIIAFFSALDKQHNEEQSGDELLDVVTVPSGELRHVEGTIILHIVFAIKLDYELGRELVKHLKVGQQGDSNNNLSPFSIALLLSVTRIQRFQDQVLDLLKTSVVKSFKDLQLLQGSKFLQNLVPHRSYVSTMILEVVKNSVHSWDHVTQGLVELGFILMDSYGPKKVLDGKTIETSPSLSRMPNQHACKLGANILLETFKIHEMIRQEILEQVLNRVVTRASSPISHFLDLLSNIVMYAPLVLQSCSSKVTEAFDYLSFLPLQTVQRLLKAVQPLLKVSMSMRDCLILVLRKAMFANQLDARKSAVAGFLLLLKNFKVLGSLSSSQCSQSLSVSQVHVDVHSHYNSVANETFCLEIMDSLRRCLSQQADVRLMLYEGFYDVLRRNSQLANSVMQTLLSQLKQFYEPKPDLLPPLKLEACILTQGDKISLQEPLDYLLCCIQHCLAWYKNTVIPLQQGEEEEEEEEAFYEDLDDILESITNRMIKSELEDFELDKSADFSQSTSIGIKNNICAFLVMGVCEVLIEYNFSISSFSKNRFEDILSLFMCYKKLSDILNEKAGKAKTKMANKTSDSLLSMKFVSSLLTALFRDSIQSHQESLSVLRSSNEFMRYAVNVALQKVQQLKETGHVSGPDGQNPEKIFQNLCDITRVLLWRYTSIPTSVEESGKKEKGKSISLLCLEGLQKIFSAVQQFYQPKIQQFLRALDVTDKEGEEREDADVSVTQRTAFQIRQFQRSLLNLLSSQEEDFNSKEALLLVTVLTSLSKLLEPSSPQFVQMLSWTSKICKENSREDALFCKSLMNLLFSLHVSYKSPVILLRDLSQDIHGHLGDIDQDVEVEKTNHFAIVNLRTAAPTVCLLVLSQAEKVLEEVDWLITKLKGQVSQETLSEEASSQATLPNQPVEKAIIMQLGTLLTFFHELVQTALPSGSCVDTLLKDLCKMYTTLTALVRYYLQVCQSSGGIPKNMEKLVKLSGSHLTPLCYSFISYVQNKSKSLNYTGEKKEKPAAVATAMARVLRETKPIPNLIFAIEQYEKFLIHLSKKSKVNLMQHMKLSTSRDFKIKGNILDMVLREDGEDENEEGTASEHGGQNKEPAKKKRKK
chain 2: […]
B1: binds.
